This note sets out measurements from publication PMC9269880 (Science Advances, 2022).

For one series, the target named is H3K9me3 mononucleosome (UniProt P68431). The series is described as follows: native gel or EMSA.
The series “cross-linking” deals with the molecule itself. Nature of the series: cross-linking.

Turning to “Swi6^2XCD-GST (recombinant, 6XHis tag cleaved)”, the fold increase in H3K9me3 nucleosome binding specificity against WT Swi6 in the series with H3K9me3 mononucleosome is 2 fold.

B1: 3XFLAG-Swi6 (natural protein, S. pombe, UniProt P40381 1-328, looked up)
chain: MKKGGVRSYRRSSTSKRSVIDDDSEPELPSMTKEAIASHKADSGSSDNEVESDHESKSSSKKLKENAKEEEGGEEEEEDEYVVEKVLKHRMARKGGGYEYLLKWEGYDDPSDNTWSSEADCSGCKQLIEAYWNEHGGRPEPSKRKRTARPKKPEAKEPSPKSRKTDEDKHDKDSNEKIEDVNEKTIKFADKSQEEFNENGPPSGQPNGHIESDNESKSPSQKESNESEDIQIAETPSNVTPKKKPSPEVPKLPDNRELTVKQVENYDSWEDLVSSIDTIERKDDGTLEIYLTWKNGAISHHPSTITNKKCPQKMLQFYESHLTFRENE
On to B1, for which the binding result in “cross-linking” is “binds”.
